According to patent US20260174875A1 (Novo Nordisk A/S, priority 2023, published 2026):
Numbered stars: 1 amine (or outer) side, 2 acyl side, 3 side chain; on linkers, the order of the positions; unused ones are H or OH. Square brackets hold non-standard residues; d marks the D form. Side chains are listed from the residue outwards. * marks the point of attachment. C20 diacid = O=C(O)CCCCCCCCCCCCCCCCCCC(=O)*; C18 diacid = O=C(O)CCCCCCCCCCCCCCCCC(=O)*; C16 diacid = O=C(O)CCCCCCCCCCCCCCC(=O)*; γGlu = O=C(O)[C@H](CCC(=O)[*:2])N[*:1]; Chem. 28 = not defined here; AEEA = NCCOCCOCC(=O)O; Aib = CC(C)(N)C(=O)O

T1: human GIP receptor (human, UniProt P48546 22-466)
T1 sequence (looked up): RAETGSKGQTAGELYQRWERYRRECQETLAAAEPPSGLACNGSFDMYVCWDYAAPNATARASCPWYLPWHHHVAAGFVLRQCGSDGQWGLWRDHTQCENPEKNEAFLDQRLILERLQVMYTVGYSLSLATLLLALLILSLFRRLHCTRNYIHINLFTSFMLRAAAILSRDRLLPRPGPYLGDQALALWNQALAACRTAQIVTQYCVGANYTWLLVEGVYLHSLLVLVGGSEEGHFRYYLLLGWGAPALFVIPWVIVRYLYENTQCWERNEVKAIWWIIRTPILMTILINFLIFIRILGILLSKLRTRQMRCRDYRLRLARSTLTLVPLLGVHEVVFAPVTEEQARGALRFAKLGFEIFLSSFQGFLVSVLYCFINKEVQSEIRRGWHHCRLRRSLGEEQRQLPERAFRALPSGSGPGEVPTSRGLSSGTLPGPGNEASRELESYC

T2: human amylin-3(a) receptor (human, UniProt P30988 25-474; O60896 24-148)
T2 sequence (looked up) 1: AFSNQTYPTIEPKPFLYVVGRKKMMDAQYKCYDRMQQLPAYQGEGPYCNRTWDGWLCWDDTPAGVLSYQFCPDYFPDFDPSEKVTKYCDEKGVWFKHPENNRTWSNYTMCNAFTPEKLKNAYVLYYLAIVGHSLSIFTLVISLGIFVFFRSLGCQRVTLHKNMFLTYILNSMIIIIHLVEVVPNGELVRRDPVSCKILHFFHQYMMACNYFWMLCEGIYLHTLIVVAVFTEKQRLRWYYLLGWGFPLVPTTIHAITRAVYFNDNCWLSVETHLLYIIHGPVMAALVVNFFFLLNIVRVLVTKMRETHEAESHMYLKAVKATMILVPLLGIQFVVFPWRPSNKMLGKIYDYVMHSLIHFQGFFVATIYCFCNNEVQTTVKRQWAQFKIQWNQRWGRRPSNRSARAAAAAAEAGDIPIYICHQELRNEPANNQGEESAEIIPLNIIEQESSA
T2 sequence (looked up) 2: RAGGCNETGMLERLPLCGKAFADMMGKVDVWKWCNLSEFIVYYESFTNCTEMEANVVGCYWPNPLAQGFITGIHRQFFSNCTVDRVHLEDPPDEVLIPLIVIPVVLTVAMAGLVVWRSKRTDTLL

B1: Compound 17 (peptide)
peptide: H[Aib]HGTFTSDYSILLEEQAAREFIEWLLAGGPSK([AEEA-AEEA-γGlu-C16 diacid])GEASELSTAALGRLSAELHRLATLPRTETGSGSP-NH2
B2: Compound 15 (peptide)
peptide: H[Aib]HGTFTSDYSILLEEQAAREFIEWLLAGGPSK([AEEA-AEEA-γGlu-C18 diacid])GAPPPSGGGEASELSTAALGRLSAELHELATLPRTETGSGSP-NH2
B3: Compound 112 (peptide)
peptide: H[Aib]HGTFTSDYSILLEEQAAREFIEWLLAGGPSK([γGlu-C18 diacid])GAPPPSGGGEASHLSTAQTARLSAELHRLADLPRTETGSGSP-NH2
B4: Compound 114 (peptide)
peptide: Y[Aib]EGTFTSDYSILLEEQAAREFIEWLLAGGPSSGAGQAPGQAPGASHLSTAALARLSAELHK([AEEA-AEEA-γGlu-C18 diacid])LATLPRTETGSGSP-NH2
B5: Compound 113 (peptide)
peptide: Y[Aib]EGTFTSDYSILLEEQAAREFIEWLLAGGPSSGAGQAPGQAPGASHLSTAQTARLSAELHK([AEEA-AEEA-γGlu-C18 diacid])LATLPRTETGSGSP-NH2
B6: Compound 14 (peptide)
peptide: H[Aib]HGTFTSDYSILLEEQAAREFIEWLLAGGPSK([AEEA-AEEA-γGlu-C18 diacid])GAPPPSGGGGASELSTAALGRLSAELHRLATLPRTETGSGSP-NH2
B7: Compound 111 (peptide)
peptide: Y[Aib]EGTFTSDYSILLEEQAAREFIEWLLAGGPSSGAGQAPGQAPGASHLSTAQTQRLSAELHRLK([AEEA-AEEA-AEEA-γGlu-C18 diacid])TLPRTETGSGSP-NH2
B8: Compound 12 (peptide)
peptide: H[Aib]HGTFTSDYSILLEEQAAREFIEWLLAGGPSK([AEEA-AEEA-γGlu-C16 diacid])GAPPPSGGGEASELSTAALGRLSAELHELATLPRTETGSGSP-NH2
B9: Compound 110 (peptide)
peptide: Y[Aib]EGTFTSDYSILLEEQAAREFIEWLLAGGPSSGAPPPSGGGEASHLSTAQTQRLSAK([AEEA-AEEA-γGlu-C20 diacid])LHRLATLPRTETGSGSP-NH2
modifications: not fully specified
B10: Compound 26 (peptide)
peptide: Y[Aib]EGTFTSDYSILLEEQAAREFIEWLLAGGPSK(Chem. 28)GEASELSTAALGRLSAELHELATLPRTETGSGSP-NH2
modifications: reading uncertain
B11: Compound 16 (peptide)
peptide: H[Aib]HGTFTSDYSILLEEQAAREFIEWLLAGGPSK([AEEA-AEEA-γGlu-C20 diacid])GAPPPSGGGEASELSTAALGRLSAELHELATLPRTETGSGSP-NH2

molecular target: T3, human GLP-1 receptor (human, UniProt P43220 24-463); test: cell-based or functional assay; settings: not given

| Molecule | hGLP-1R Potency, 1% HSA, EC50 [pM] |
| --- | --- |
| B1 | 13.1 |
| B2 | 103 |
| B3 | 336 |
| B4 | 126 |
| B5 | 57.5 |
| B6 | 75.9 |
| B7 | 34.8 |
| B8 | 10.2 |
| B9 | 169 |
| B10 | 1680 |
| B11 | 238 |

molecular target: T1, human GIP receptor; test: cell-based or functional assay; settings: not given

| Molecule | hGIPR Potency, 1% HSA, EC50 [pM] |
| --- | --- |
| B1 | 36.9 |
| B2 | 356 |
| B3 | 321 |
| B4 | 17.2 |
| B5 | 8.96 |
| B6 | 254 |
| B7 | 12.2 |
| B8 | 59.1 |
| B9 | 29.3 |
| B10 | 558 |
| B11 | 485 |

molecular target: T2, human amylin-3(a) receptor; test: cell-based or functional assay; settings: not given

| Molecule | hAMYR3 Potency, 1% HSA, EC50 [pM] |
| --- | --- |
| B1 | 33.6 |
| B2 | 82.2 |
| B3 | 269 |
| B4 | 45.2 |
| B5 | 136 |
| B6 | 33.4 |
| B7 | 66.4 |
| B8 | 55 |
| B9 | 94 |
| B10 | 349 |
| B11 | 166 |

molecular target: T3, human GLP-1 receptor; test: cell-based or functional assay; settings: not given; remark: another data set of the same source

| Molecule | hGLP-1R Potency, no HSA, EC50 [pM] |
| --- | --- |
| B1 | 2.72 |
| B2 | 1.41 |
| B3 | 4.37 |
| B4 | 43.3 |
| B5 | 14.4 |
| B6 | 2.05 |
| B7 | 15.9 |
| B8 | 0.8 |
| B9 | 107 |
| B10 | 20.7 |
| B11 | 2.74 |

molecular target: T1, human GIP receptor; test: cell-based or functional assay; settings: not given; remark: another data set of the same source

| Molecule | hGIPR Potency, no HSA, EC50 [pM] |
| --- | --- |
| B1 | 5.04 |
| B2 | 3.2 |
| B3 | 2.42 |
| B4 | 4.29 |
| B5 | 2.02 |
| B6 | 5.84 |
| B7 | 3.66 |
| B8 | 2.62 |
| B9 | 8.01 |
| B10 | 1.75 |
| B11 | 4.27 |

molecular target: T2, human amylin-3(a) receptor; test: cell-based or functional assay; settings: not given; remark: another data set of the same source

| Molecule | hAMYR3 Potency, no HSA, EC50 [pM] |
| --- | --- |
| B1 | 5.13 |
| B2 | 5.01 |
| B3 | 3.65 |
| B4 | 2.27 |
| B5 | 2.53 |
| B6 | 2.21 |
| B7 | 3.33 |
| B8 | 6.23 |
| B9 | 3.27 |
| B10 | 11.8 |
| B11 | 5.7 |

system: not listed separately; test: Chemical stability assessment in formulation (UPLC-UV-MS purity loss at 37° C.); format: physicochemical; settings: 8 mM phosphate buffer pH 7.4, 1 mg/mL, 2 weeks
Protocol: The assay was performed to investigate the extend of chemical degradation in vitro over time upon incubation at 37° C. for a period of 2 weeks.
Peptide solutions were prepared by dissolving freeze-dried powder in 8 mM phosphate buffer pH 7.4 to a target of 1 mg/mL. The pH of peptide solutions was adjusted to 7.4 with 0.02 M HCl or 0.02 M NaOH. Samples were filled in Agilent HPLC vials with fixed insert. Vials were capped to prevent evaporation. The HPLC vials were incubated at 37° C. and samples were withdrawn at different time points over a period of 2 weeks, flash frozen at −80° C., and stored at −20° C. until analysis.
A flow-rate of 100 μL/min was delivered with a Binary solvent manager pump having 0.1% formic acid in water as solvent A and 0.1% formic acid in acetonitrile as solvent B. Gradient elution was carried out using 20% B from 0 to 2 min followed by 20 to 50% B from 2 to 20 min in a total run time of 30 min.

| Molecule | Purity loss per week at 37° C. [%] |
| --- | --- |
| CC[C@H](C)[C@H](NC(=O)[C@H](CCC(=O)O)NC(=O)[C@H](CCC(=O)O)NC(=O)[C@H](CC(C)C)NC(=O)[C@H](CC(C)C)NC(=O)[C@H](CCCCNC(=O)COCCOCCNC(=O)COCCOCCNC(=O)CC[C@H](NC(=O)CCCCCCCCCCCCCCCCCCC(=O)O)C(=O)O)NC(=O)[C@H](CO)NC(=O)[C@H](Cc1ccc(O)cc1)NC(=O)[C@H](CC(=O)O)NC(=O)[C@H](CO)NC(=O)[C@@H](NC(=O)[C@H](Cc1ccccc1)NC(=O)[C@@H](NC(=O)CNC(=O)[C@H](CCC(=O)O)NC(=O)C(C)(C)NC(=O)[C@@H](N)Cc1ccc(O)cc1)[C@@H](C)O)[C@@H](C)O)C(=O)N[C@@H](C)C(=O)N[C@@H](C)C(=O)N[C@@H](CCCNC(=N)N)C(=O)N[C@@H](CCC(=O)O)C(=O)N[C@@H](Cc1ccccc1)C(=O)N[C@H](C(=O)N[C@@H](CCC(=O)O)C(=O)N[C@@H](Cc1c[nH]c2ccccc12)C(=O)N[C@@H](CC(C)C)C(=O)N[C@@H](CC(C)C)C(=O)N[C@@H](C)C(=O)NCC(=O)NCC(=O)N1CCC[C@H]1C(=O)N[C@@H](CO)C(=O)N[C@@H](CO)C(=O)NCC(=O)N[C@@H](C)C(=O)NCC(=O)N[C@@H](CCC(N)=O)C(=O)N[C@@H](C)C(=O)N1CCC[C@H]1C(=O)NCC(=O)N[C@@H](CCC(=O)O)C(=O)N[C@@H](C)C(=O)N1CCC[C@H]1C(=O)NCC(=O)N[C@@H](C)C(=O)N[C@@H](CO)C(=O)N[C@@H](CCC(=O)O)C(=O)N[C@@H](CC(C)C)C(=O)N[C@@H](CO)C(=O)N[C@H](C(=O)N[C@@H](C)C(=O)N[C@@H](C)C(=O)N[C@@H](CC(C)C)C(=O)NCC(=O)N[C@@H](CCCNC(=N)N)C(=O)N[C@@H](CC(C)C)C(=O)N[C@@H](CO)C(=O)N[C@@H](C)C(=O)N[C@@H](CCC(=O)O)C(=O)N[C@@H](CC(C)C)C(=O)N[C@@H](Cc1c[nH]cn1)C(=O)N[C@@H](CCC(N)=O)C(=O)N[C@@H](CC(C)C)C(=O)N[C@@H](C)C(=O)N[C@H](C(=O)N[C@@H](CCC(=O)O)C(=O)N1CCC[C@H]1C(=O)N[C@@H](CCCNC(=N)N)C(=O)N[C@H](C(=O)N[C@@H](CCC(=O)O)C(=O)N[C@H](C(=O)NCC(=O)N[C@@H](CO)C(=O)NCC(=O)N[C@@H](CO)C(=O)N1CCC[C@H]1C(N)=O)[C@@H](C)O)[C@@H](C)O)[C@@H](C)O)[C@@H](C)O)[C@@H](C)CC [Compound 172] | 0.9 |
